The record followed here is article PMC10063658, “The RNA-binding protein hnRNP F is required for the germinal center B cell response”.

One data set has as its system hnRNP H3 (mouse). As to the kind of experiment: pull-down/MS. As to conditions: Pull-down: 20 mM Tris-HCl pH 7.5, 200 mM NaCl, 6 mM EDTA, 5 mM KF, 5 mM beta-glycerophosphate, 4 h at 4 C, 100 ug nuclear extract; EMSA: BersinBio RNA-EMSA ….
The next data set has as its system CELF2 (mouse). The experiment in a line: pull-down/MS. Particulars: Pull-down: 20 mM Tris-HCl pH 7.5, 200 mM NaCl, 6 mM EDTA, 5 mM KF, 5 mM beta-glycerophosphate, 4 h at 4 C, 100 ug nuclear extract; EMSA: BersinBio RNA-EMSA ….
For a further data set, the system named is hnRNP H2 (mouse). The experiment in a line: pull-down/MS. As to conditions: Pull-down: 20 mM Tris-HCl pH 7.5, 200 mM NaCl, 6 mM EDTA, 5 mM KF, 5 mM beta-glycerophosphate, 4 h at 4 C, 100 ug nuclear extract; EMSA: BersinBio RNA-EMSA ….
Data set [1] has as its system hnRNP H1 (B cell nuclear extract) (mouse). As to the kind of experiment: pull-down/MS. As to conditions: Pull-down: 20 mM Tris-HCl pH 7.5, 200 mM NaCl, 6 mM EDTA, 5 mM KF, 5 mM beta-glycerophosphate, 4 h at 4 C, 100 ug nuclear extract; EMSA: BersinBio RNA-EMSA ….
The target in a further data set is T1, hnRNP F (mouse, UniProt Q9Z2X1 1-415).
T1 sequence: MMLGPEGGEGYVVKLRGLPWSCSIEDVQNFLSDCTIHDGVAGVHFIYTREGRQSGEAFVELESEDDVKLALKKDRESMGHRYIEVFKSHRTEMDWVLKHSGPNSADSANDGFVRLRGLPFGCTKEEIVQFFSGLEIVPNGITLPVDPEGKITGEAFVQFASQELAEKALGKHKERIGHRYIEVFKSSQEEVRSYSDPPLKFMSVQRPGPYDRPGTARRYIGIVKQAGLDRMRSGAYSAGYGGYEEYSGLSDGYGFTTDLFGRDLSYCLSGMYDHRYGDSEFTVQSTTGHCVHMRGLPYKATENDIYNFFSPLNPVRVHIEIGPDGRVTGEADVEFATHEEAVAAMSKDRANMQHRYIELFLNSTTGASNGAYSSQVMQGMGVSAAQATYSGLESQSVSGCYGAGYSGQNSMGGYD
The experiment in a line: EMSA; Pull-down: 20 mM Tris-HCl pH 7.5, 200 mM NaCl, 6 mM EDTA, 5 mM KF, 5 mM beta-glycerophosphate, 4 h at 4 C, 100 ug nuclear extract; EMSA: BersinBio RNA-EMSA kit, 12.5 nM biotin-RNA, 200 ng protein. As to conditions: protein: recombinant, tags: His.

Turning to Cd40 exon 6 sense RNA, the binding signal (fold LFQ (sense/antisense)) (in the data set with hnRNP H3 (mouse); with CELF2 (mouse); with hnRNP H2 (mouse); in data set [1]) was over 5 throughout.

In the case of UCAGGAGAGGAAAGGGAGGGAGGGU (ssRNA) [I7-WT], in the data set with hnRNP F (label: 5' biotin), the binding result is “binds”.

On to UCCAGGGGAGAAUGGCCUUGCCAAGUCUUUGGGAAGCAGGGAACU (ssRNA) [I6-WT], for which, in the data set with hnRNP F, the binding result is recorded as “binds”.
